Laboratory results taken from patent US9347884B2, “Microfluidic device with direct sample heating via electromagnetic radiation” (UCL BUSINESS PLC, priority 2009, dated 2016).
Where two headings read alike, the source gives them in different places.

What was measured:
[1] = Literature, cited from earlier work
[2] = Example 1 GdHCl denaturation of FKBP-12, capillary intrinsic fluorescence; assay type: physicochemical; conditions: 2 μM FKBP-12, GdHCl, 1 mM DTT, 50 mM Tris.HCl pH 7.5, 20° C.
[3] = Equilibrium denaturation of FKBP-12 proteins by GdnHCl, capillary method; assay type: physicochemical
Method: Samples were measured and averaged for 100 laser pulses. […] Error bars shown are standard deviations.
(§1) The experimental detail was as set out below:
(§2) Equilibrium denaturation of wild-type FKBP-12: 50 μl, of FKBP-12 stock (50 μM FKBP-12, 5 mM DTT, 50 mM Tris.HCl, pH 7.5) was added to each well of a UV transparent Costar (Corning, Lowell, Mass., USA) 96-well plate. […] Samples were sealed and equilibrated for 17 hours at 22° C. prior to measurement of intrinsic protein fluorescence in a Fluostar Optima plate reader as above. The same samples were then used to measure intrinsic protein fluorescence in the micro-capillary device for a direct comparison.
(§3) Data for the observed fluorescence (Fobs) as a function of denaturant concentration ([D]) were fit using SigmaPlot 10.0 (Systat Software, Hounslow, UK) to the equation below: […]
(§4) The free energy of protein denaturation in water ΔGH2O was calculated as mGC1/2, using the fitted mG, where we set the denaturant dependent free energy (ΔGobs) to zero in the equation below when [D] is equal to C1/2. ΔGobs=ΔGH2O+mG[D] Values of ΔGH2O were used to calculate the change in free energy of the mutant or ligand bound protein, ΔΔGX-WT, relative to un-liganded wild-type FKBP-12. The change in free energy of unfolding upon ligand binding, ΔΔGbinding, was calculated for each mutant from the values of ΔGH2O for liganded FKBP-12 relative to ΔGH2O for non-liganded FKBP-12.

[4] = Equilibrium denaturation of FKBP-12 proteins by GdnHCl, microplate method; assay type: physicochemical
Method: as §1, §2, §3, §4

[5] = GdnHCl, 50 mM Tris.HCl pH 7.5, 1 mM DTT
[6] = GdnHCl, mG from each independent curve fit
[7] = GdnHCl, using average mG values
[8] = relative to wild-type FKBP-12 without rapamycin, from ΔGH2O

Substance: FKBP-12 wt: Wild-type FKBP-12 expressed and purified from a GST-FKBP fusion gene in E. coli BL21 cells
- C1/2 (transition mid-point) ([1]; GdnHCl): 0.78 ± 0.005 M
- mG ([1]; GdnHCl): 6.6 ± 0.3 kcal mol^−1 M^−1
- ΔGH2O ([1]; GdnHCl): 5.13 ± 0.2 kcal/mol
- ΔΔGX-WT ([1]; relative to wild-type FKBP-12 without rapamycin): 0 kcal/mol
- mid-point of denaturation (C1/2), absence of rapamycin [2]: 0.65 M
- mG ([3]; GdnHCl): 5.4 ± 0.7 kcal mol^−1 M^−1
- C1/2 (transition mid-point) [3, 5]: 0.74 ± 0.02 M
- ΔGH2O [3, 6]: 4.03 ± 0.5 kcal/mol
- ΔG<mG> [3, 7]: 3.84 ± 0.3 kcal/mol
- ΔΔGX-WT [3, 8]: 0 kcal/mol
- mG ([4]; GdnHCl): 6.6 ± 0.4 kcal mol^−1 M^−1
- C1/2 (transition mid-point) [4, 5]: 0.77 ± 0.01 M
- ΔGH2O [4, 6]: 5.05 ± 0.3 kcal/mol
- ΔG<mG> [4, 7]: 4.72 ± 0.3 kcal/mol
- ΔΔGX-WT [4, 8]: 0 kcal/mol
